For series [1], the target named is T1, PafBC WT (Mycobacterium smegmatis, UniProt A4ZHT0;A0QZ41 1-331;1-318).
T1 sequence 1: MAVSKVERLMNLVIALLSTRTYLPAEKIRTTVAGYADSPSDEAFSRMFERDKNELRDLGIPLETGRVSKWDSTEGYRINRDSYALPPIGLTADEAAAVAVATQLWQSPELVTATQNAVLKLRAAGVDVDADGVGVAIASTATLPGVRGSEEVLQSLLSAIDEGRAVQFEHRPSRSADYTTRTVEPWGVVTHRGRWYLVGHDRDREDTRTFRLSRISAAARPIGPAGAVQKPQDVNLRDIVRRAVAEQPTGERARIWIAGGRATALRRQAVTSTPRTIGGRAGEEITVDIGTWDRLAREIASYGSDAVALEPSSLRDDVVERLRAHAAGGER
T1 sequence 2: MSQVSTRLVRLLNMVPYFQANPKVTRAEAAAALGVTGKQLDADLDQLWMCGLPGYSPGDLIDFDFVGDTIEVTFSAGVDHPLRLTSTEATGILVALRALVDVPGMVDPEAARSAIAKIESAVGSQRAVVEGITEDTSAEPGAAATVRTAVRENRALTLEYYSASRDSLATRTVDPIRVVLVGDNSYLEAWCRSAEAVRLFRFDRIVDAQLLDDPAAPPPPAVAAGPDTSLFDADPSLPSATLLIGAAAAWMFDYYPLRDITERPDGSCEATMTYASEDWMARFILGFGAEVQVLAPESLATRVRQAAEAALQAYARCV
Put plainly: analytical gel filtration; ssDNA:PafBC stoichiometry ~1:1; ssDNA EMSA: 22.5 mM Hepes-KOH pH 7.8, 135 mM NaCl, 20 mM KCl, 5 mM MgCl2, 1 mM DTT, 37 C 15 min, 10 nM DNA, 0-16 uM PafBC; RNAP EMSA: 20 mM Hepes-NaOH pH 8, 100 mM K-acetate, 36 mM NaCl, 10 mM MgCl2, 2 mM DTT, 37 C 30 min. The note with it: protein: recombinant; tags: C-terminal Strep on PafC; copies: 1;1; single strand. (In general: A gel shift assay detects complexes by their altered migration in electrophoresis.)

Series [2] addresses T1, PafBC WT. The series can be described thus: EMSA; ssDNA EMSA: 22.5 mM Hepes-KOH pH 7.8, 135 mM NaCl, 20 mM KCl, 5 mM MgCl2, 1 mM DTT, 37 C 15 min, 10 nM DNA, 0-16 uM PafBC; RNAP EMSA: 20 mM Hepes-NaOH pH 8, 100 mM K-acetate, 36 mM NaCl, 10 mM MgCl2, 2 mM DTT, 37 C 30 min. As to conditions: protein: recombinant, tags: C-terminal Strep on PafC, copies: 1;1, label: internal fluorescein-dT.

The target in another series is T2, PafBC WT, cryo-EM sample (Mycobacterium smegmatis, UniProt A4ZHT0;A0QZ41 1-331;1-318).
T2 sequence 1: T1 sequence 1
T2 sequence 2: T1 sequence 2
The series can be described thus: cryo-EM; within RNAP-sigmaA promoter complex; formaldehyde-fixed; second entry 9FNE; ssDNA EMSA: 22.5 mM Hepes-KOH pH 7.8, 135 mM NaCl, 20 mM KCl, 5 mM MgCl2, 1 mM DTT, 37 C 15 min, 10 nM DNA, 0-16 uM PafBC; RNAP EMSA: 20 mM Hepes-NaOH pH 8, 100 mM K-acetate, 36 mM NaCl, 10 mM MgCl2, 2 mM DTT, 37 C 30 min. As to conditions: protein: recombinant; copies: 1;1; single strand.

Series [3] addresses RNAP-sigmaA holoenzyme with RbpA (Mycobacterium smegmatis SMR5 …, UniProt A0QSL8;P60281;A0QS66;A0QWT1;A0QW02;A0QZ11 1-350;1-1169;1-1317;1-107;1-466;1-114). The series can be described thus: EMSA; nonspecific binding; ssDNA EMSA: 22.5 mM Hepes-KOH pH 7.8, 135 mM NaCl, 20 mM KCl, 5 mM MgCl2, 1 mM DTT, 37 C 15 min, 10 nM DNA, 0-16 uM PafBC; RNAP EMSA: 20 mM Hepes-NaOH pH 8, 100 mM K-acetate, 36 mM NaCl, 10 mM MgCl2, 2 mM DTT, 37 C 30 min. The note with it: protein: native, tags: TwinStrep on RpoC, His6 removed from SigA, chain copies: 2;1;1;1;1;1, blunt.

For series [4], the target named is RNAP-sigmaA holoenzyme with RbpA;CarD;PafBC, PafC WYL variant (Mycobacterium smegmatis SMR5 …, UniProt A0QSL8;P60281;A0QS66;A0QWT1;A0QW02;A0QZ11;A0R561;A4ZHT0;A0QZ41 …, ||R201A;R204A). The series can be described thus: EMSA; 5 uM dT12 ssDNA; efficiency similar to WT; ssDNA EMSA: 22.5 mM Hepes-KOH pH 7.8, 135 mM NaCl, 20 mM KCl, 5 mM MgCl2, 1 mM DTT, 37 C 15 min, 10 nM DNA, 0-16 uM PafBC; RNAP EMSA: 20 mM Hepes-NaOH pH 8, 100 mM K-acetate, 36 mM NaCl, 10 mM MgCl2, 2 mM DTT, 37 C 30 min. As to conditions: protein: native;recombinant;recombinant; tags: TwinStrep on RpoC; His6 removed from SigA;His6-thioredoxin removed by TEV;C-terminal Strep on PafC; chain copies: 2;1;1;1;1;1;1;1;1; label: 5' FAM on strand 1; blunt, internal non-complementary bubble 13 nt.

In series [5] the target is RNAP-sigmaA holoenzyme with RbpA;PafBC WT (Mycobacterium smegmatis SMR5 …, UniProt A0QSL8;P60281;A0QS66;A0QWT1;A0QW02;A0QZ11;A4ZHT0;A0QZ41 …, |). The series can be described thus: EMSA; 5 uM dT12 ssDNA; PafBC shifts RNAP-DNA band; ssDNA EMSA: 22.5 mM Hepes-KOH pH 7.8, 135 mM NaCl, 20 mM KCl, 5 mM MgCl2, 1 mM DTT, 37 C 15 min, 10 nM DNA, 0-16 uM PafBC; RNAP EMSA: 20 mM Hepes-NaOH pH 8, 100 mM K-acetate, 36 mM NaCl, 10 mM MgCl2, 2 mM DTT, 37 C 30 min. As to conditions: protein: native;recombinant; tags: TwinStrep on RpoC; His6 removed from SigA;C-terminal Strep on PafC; chain copies: 2;1;1;1;1;1;1;1; label: 5' FAM on strand 1; blunt, internal non-complementary bubble 13 nt.

The target in series [6] is RNAP-sigmaA holoenzyme with RbpA;CarD;PafBC, PafB WYL variant (Mycobacterium smegmatis SMR5 …, UniProt A0QSL8;P60281;A0QS66;A0QWT1;A0QW02;A0QZ11;A0R561;A4ZHT0;A0QZ41 …, ||R214A;PafB:R211A). Put plainly: EMSA; 5 uM dT12 ssDNA; PafBC variant does not join RNAP-DNA; ssDNA EMSA: 22.5 mM Hepes-KOH pH 7.8, 135 mM NaCl, 20 mM KCl, 5 mM MgCl2, 1 mM DTT, 37 C 15 min, 10 nM DNA, 0-16 uM PafBC; RNAP EMSA: 20 mM Hepes-NaOH pH 8, 100 mM K-acetate, 36 mM NaCl, 10 mM MgCl2, 2 mM DTT, 37 C 30 min. The note with it: protein: native;recombinant;recombinant; tags: TwinStrep on RpoC; His6 removed from SigA;His6-thioredoxin removed by TEV;C-terminal Strep on PafC; chain copies: 2;1;1;1;1;1;1;1;1; label: 5' FAM on strand 1; blunt, internal non-complementary bubble 13 nt.

For series [7], the target named is RNAP-sigmaA holoenzyme with RbpA;CarD;PafBC, PafB R181A/R204A/R208A (Mycobacterium smegmatis SMR5 …, UniProt A0QSL8;P60281;A0QS66;A0QWT1;A0QW02;A0QZ11;A0R561;A4ZHT0;A0QZ41 …, ||R204A;R208A;PafB:R181A). Described as above. As to conditions: protein: native;recombinant;recombinant; tags: TwinStrep on RpoC; His6 removed from SigA;His6-thioredoxin removed by TEV;C-terminal Strep on PafC; chain copies: 2;1;1;1;1;1;1;1;1; label: 5' FAM on strand 1; blunt, internal non-complementary bubble 13 nt.

Series [8] addresses RNAP-sigmaA holoenzyme with RbpA;CarD;PafBC, PafB Y196A (Mycobacterium smegmatis SMR5 …, UniProt A0QSL8;P60281;A0QS66;A0QWT1;A0QW02;A0QZ11;A0R561;A4ZHT0;A0QZ41 …, ||Y196A). Put plainly: EMSA; 5 uM dT12 ssDNA; retains association with RNAP; ssDNA EMSA: 22.5 mM Hepes-KOH pH 7.8, 135 mM NaCl, 20 mM KCl, 5 mM MgCl2, 1 mM DTT, 37 C 15 min, 10 nM DNA, 0-16 uM PafBC; RNAP EMSA: 20 mM Hepes-NaOH pH 8, 100 mM K-acetate, 36 mM NaCl, 10 mM MgCl2, 2 mM DTT, 37 C 30 min. As to conditions: protein: native;recombinant;recombinant; tags: TwinStrep on RpoC; His6 removed from SigA;His6-thioredoxin removed by TEV;C-terminal Strep on PafC; chain copies: 2;1;1;1;1;1;1;1;1; label: 5' FAM on strand 1; blunt, internal non-complementary bubble 13 nt.

The target of series [9] is RNAP-sigmaA holoenzyme with RbpA;CarD;PafBC WT (Mycobacterium smegmatis SMR5 …, UniProt A0QSL8;P60281;A0QS66;A0QWT1;A0QW02;A0QZ11;A0R561;A4ZHT0;A0QZ41 …, ||). The series can be described thus: EMSA; ssDNA …; no effect of CarD on complex formation; ssDNA EMSA: 22.5 mM Hepes-KOH pH 7.8, 135 mM NaCl, 20 mM KCl, 5 mM MgCl2, 1 mM DTT, 37 C 15 min, 10 nM DNA, 0-16 uM PafBC; RNAP EMSA: 20 mM Hepes-NaOH pH 8, 100 mM K-acetate, 36 mM NaCl, 10 mM MgCl2, 2 mM DTT, 37 C 30 min. As to conditions: protein: native;recombinant;recombinant; tags: TwinStrep on RpoC; His6 removed from SigA;His6-thioredoxin removed by TEV;C-terminal Strep on PafC; chain copies: 2;1;1;1;1;1;1;1;1; label: 5' FAM on strand 1; blunt, internal non-complementary bubble 13 nt.

For the molecule TTTTTTTTTTTTTTTTTTTT (ssDNA) [dT20 ssDNA unlabeled], the binding result with PafBC WT [1] is listed as “binds”.

B1: blocked end ssDNA (dT12 between two hairpins) (structured_DNA)
DNA: GGGCCCGGGCCCGGTATATCCGGGCCCGGGCCCTTTTTTTTTTTTCCCGGGCCCGGGCCTATATGGCCCGGGCCCGGG
Turning to B1, in the series with PafBC WT [2] (two hairpins, 14 bp stems, 5 nt loops), the binding result is reported as “binds”.

As to TTGTTGTTGTT (ssDNA) [cryo-EM ssDNA ligand], the binding result in the series with PafBC WT, cryo-EM sample is on record as “binds”.

B2: nonspecific DNA with bubble (dsDNA)
DNA 1: GTCGTGAAGGACACCGCCGAAGCGCCCAAGACGGCCGACGAGAAAGCCGCCGAGGCCACCGGGCCCAGCAAGGTCAA
DNA 2: TTGACCTTGCTGGGCGTCAGCATGCGAACGGCTTTCTCGTCGGCCGTCTTGGGCGCTTCGGCGGTGTCCTTCACGAC
Consider B2, for which, in series [3] (label: 5' FAM on strand 1, internal non-complementary bubble), the binding result is “binds”.

B3: housekeeping promoter with -10 bubble (dsDNA)
DNA 1: CCCCGTTTTGGGGCAGATGCGATTCTGAAATACTGCTTTGTCTGGCTTGTCAAGTCGCTCTGGACCGGGTTGTTTTC
DNA 2: GAAAACAACCCGGTCCAGAGCGACTTGACAAGCCAGACAAAGCAGTATTAAGCTGGCAGGGTTGCCCCAAAACGGGG
For the molecule B3, the binding result in series [3] (label: 5' FAM on strand 2, internal non-complementary bubble) was “binds”.

B4: PafBC-specific promoter with -10 bubble (dsDNA)
DNA 1: TCGTCTACTGTGGTGAAGAGTTCGACCGGACTTGTCGGTGGTCTGCTCTAACGTCACGGCCAACCGATCGGAACACC
DNA 2: GGTGTTCCGATCGGTACCGGACATGTAAAGAGCAGACCACCGACAAGTCCGGTCGAACTCTTCACCACAGTAGACGA
For B4, the binding result in series [4] is reported as “binds”; in series [5], “binds”; in series [3] (label: 5' FAM on strand 1, internal non-complementary bubble 13 nt) it was “binds”; in series [6], “no binding”; in [7], “no binding”; in series [8] it was “binds”. In addition, the binding result in series [9] is recorded as “binds”.

On to GGGCCCGGGCCCGGTATATCCGGGCCCGGGCCC (structured_DNA) [hairpin DNA control], for which the binding result with PafBC WT [2] (hairpin, 14 bp stem, 5 nt loop) is “no binding”.

These data come from article PMC11804915, “Single-stranded DNA binding to the transcription factor PafBC triggers the mycobacterial DNA damage response”.
